Measurements reported in patent publication US20220204994A1.

Legend:
[1] = system: B2M13-14.479 engineered meganuclease (Artificial); test: cell_activity; conditions: MC3 LNP repeat dose day 0 and day 3, ApoE, measured day 7; 22.62% in the comparison without repeat dosing
[2] = target: CD19 on Raji cells (B cell lymphoma line, Burkitt's Lymphoma) (UniProt P15391); test: cell-based or functional assay
UniProt P15391, sequence (P15391 20-556 limits assumed): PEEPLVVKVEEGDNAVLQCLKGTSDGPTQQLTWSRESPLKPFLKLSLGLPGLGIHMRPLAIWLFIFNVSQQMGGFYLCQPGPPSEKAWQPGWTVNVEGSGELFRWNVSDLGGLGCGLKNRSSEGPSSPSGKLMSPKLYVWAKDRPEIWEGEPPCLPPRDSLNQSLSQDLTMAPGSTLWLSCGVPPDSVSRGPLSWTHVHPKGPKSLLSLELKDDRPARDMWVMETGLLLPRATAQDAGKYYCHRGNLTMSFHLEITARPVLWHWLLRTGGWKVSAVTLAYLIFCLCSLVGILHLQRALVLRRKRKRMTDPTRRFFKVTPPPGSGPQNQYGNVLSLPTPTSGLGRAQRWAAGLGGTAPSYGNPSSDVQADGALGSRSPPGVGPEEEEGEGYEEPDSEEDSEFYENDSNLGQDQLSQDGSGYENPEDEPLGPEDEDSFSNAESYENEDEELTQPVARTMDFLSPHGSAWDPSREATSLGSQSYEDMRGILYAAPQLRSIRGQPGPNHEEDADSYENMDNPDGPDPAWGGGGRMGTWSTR

Question: With “B2M 13-14 recognition sequence (B2M gene)” as the substance, how does the activity (% B2M knockout) [1] read?
Answer: 26.4

Question: Which killing of CD19+ Raji cells in 16 h co-culture (CAR T cells made with AAV added 0-24 hours after LNP) [2] does the source give for “anti-CD19 CAR (FMC63) expressed on human donor T cells after AAV6-7206 transduction” here?
Answer: 99%

Question: And the killing of CD19+ Raji cells in 16 h co-culture (CAR T cells made with AAV added 24-48 hours after LNP) [2]?
Answer: 94%
